Here are results for 1 molecule from patent US12527862B2, “Bactericidal/permeability increasing protein for use in a method of immunization, preferably as an adjuvant in a method of vaccination” (UNIVERSITÄT REGENSBURG, priority 2018, dated 2026).

The subject of assay [1] is CD3+CD8+ T cells. Description: Intracellular IFNγ staining of CD8+ T cells after supernatant stimulation. The assay is classed as cell-based, C57BL/6J mice. The settings on record: SN BPI vs SN NT, 24h, n=4 (FIG. 13D). The protocol: (§1) Naive CD4+CD25-CD44-CD62L+ T cells were isolated from peripheral lymph nodes and spleen of C57BL/6J mice and purified by MACS and FACS. Naïve CD4+ T cells were cultured in the presence of aCD3 and aCD28 antibodies and dendritic cell-derived supernatant after stimulation with BPI (SN BPI, BPI 200 nM) or after stimulation with ODN 1826 (SN CpG, ODN 1826 20 nM) or after stimulation with BPI and ODN 1826 (SN BPI+CpG, BPI 200 nM, ODN 1826 20 nM) or supernatant without addition of BPI or ODN 1826 (SN NT). On day five, cytokine levels were measured by Luminex. • A. Th1 differentiation as shown by detection of IFNγ (n=3). • B. Th17 differentiation as shown by detection of IL-17 (n=3). • C. […] Lymph node cells were stimulated with aCD3 and aCD28 antibodies and SN BPI or SN NT and incubated for 6h before adding a protein transport inhibitor cocktail and incubating for additional 16h. Cells were fixed and permeabilized and stained for CD3, CD4, CD8, and IFNγ. Lines are connecting the amount of IFNγ-producing CD3+CD8+ T cells after treatment with SN BPI or SN NT for 24h. • Bars represent the means±standard error of the mean. Statistics for comparison were performed with the paired Student's t-test (A to C) or the ratio paired Student's t-test (D).
All described work steps were conducted on ice. […]

The subject of assay [2] is human peripheral blood mononuclear cells. Description: Stimulation of human peripheral blood mononuclear cells, TNFα ELISA. The assay is classed as cell-based. The settings on record: BPI 500 nM, 18 h. The protocol:
After informed consent, blood was drawn from healthy male volunteers using heparinized blood collection tubes and PBMCs were separated using leucosep tubes containing FICOLL® PAQUE PLUS (Oxford Immunotec, Abingdon, Great Britian) at 1,000×g for 10 min. The pellet was resuspended in AIM VR Medium (Thermo Fisher Scientific Inc., Waltham, MA, USA), counted, and cultivated in 96-well plates for 4 h (1×10^5/100 μl). Then cells were stimulated with (R)-Pam3CSK4 (bLP, 1 nM) or LTA S. pneumoniae Δlgt (a lipoprotein deficient strain, LTA SPΔlgt, 1 μM, n=4) in the presence or absence of BPI (500 nM). The supernatants were collected after 18 h for determination of cytokine concentration by ELISA according to the manufacturer's instructions (OPTEIA™ Human TNFα ELISA Set, BD Biosciences, Heidelberg, Germany).

The test system of assay [3] is naïve CD4+ T cells. The assay can be described thus: T cell activation assay with naïve CD4+ T cells and dendritic cell-derived supernatant. The assay is classed as cell-based, C57BL/6J mice. The settings on record: DC supernatant after BPI 200 nM ± ODN 1826 20 nM, aCD3 and aCD28, day five, Luminex, n=3 (FIG. 13A-C). The procedure:
as §1, with “Cells were fixed and permeabilized and stained for CD3, CD4, CD8, and IFNγ. Lines are connecting the amount of IFNγ-producing CD3+CD8+ T cells after treatment with SN BPI or SN NT for 24h. • Bars represent the means±standard error of the mean. Statistics for comparison were performed with the paired Student's t-test (A to C) or the ratio paired Student's t-test (D).” left out
To isolate CD4+SC and pLNC, cells isolated from spleen and peripheral lymph nodes (see 2.1.3) were sorted by magnetic cell sorting (MACS), using a CD4+ T cell isolation kit (#130-104-454, Miltenyi Biotec). […] The flow-through, containing unlabeled CD4+ cells, was collected and cell number was determined using a hemocytometer. CD4+SC and pLNC were used in experiments or labeled with fluorescent antibodies against non-naïve T cell markers for fluorescence activated cell sorting (FACS) of naïve CD4+ T cells. […]

B1: bactericidal/permeability-increasing protein (protein)
chain: RIKIPDYSDSFKIKHLGKGHYSFYSMDIREFQLPSSQISMVPNVGLKFSISNANIKISGKWKAQKRFLKMSGNFDLSIEGMSISADLKLGSNPTSGKPTITCSSCSSHINSVHVHISKSKVGWLIQLFHKKIESALRNKMNSQVCEKVTNSVSSELQPYFQTLPVMTKIDSVAGINYGLVAPPATTAETLDVQMKGEFYSENHHNPPPFAPPVMEFPAAHDRMVYLGLSDYFFNTAGLVYQEAGVLKMTLRDDMIPKESKFRLTTKFFGTFLPEVAKKFPNMKIQIHVSASTPPHLSVQPTGLTFYPAVDVQAFAVLPNSSLASLFLIGMHTTGSMEVSAESNRLVGELKLDRLLLELKHSNIGPFPVELLQDIMNYIVPILVLPRVNEKLQKGFPLPTPARVQLYNVVLQPHQNFLLFGADVVYK
modifications: labeled with NT647 (Monolith NT Protein Labeling Kit RED-NHS) in the MST experiments
notes: recombinant human BPI, aa32-487 of huBPI with N-terminal HA signal peptide, expressed in HEK293T cells
For the molecule B1, in assay [1], the “activation of CD8+ T cells (IFNγ-producing CD3+CD8+ T cells)” value was “activation of CD8+ T cells”. Also, the “effect of BPI alone on PBMCs” value in assay [2] was “minor effect”. Moreover, the “activation and differentiation of naïve T cells into Th1, Th17 and Th22 cells (IFNγ, IL-17, IL-22)” value in assay [3] is “promotes not only activation but also differentiation of naïve T cells into Th1, Th17 and Th22 cells”.
